Measured values published in patent publication US20140287952A1 (ALDERBIO, published 2014).

Experiments:
human PCSK9 [1] = target: T1, human PCSK9 (human, UniProt Q8NBP7 31-692, biotinylated in the ELISA (site not stated)); assay: ELISA: biotinylated human PCSK9 on Neutravidin plates, antibody dilution series, anti-human IgG Fc-HRP, OD450
T1 construct: Biotinylated and captured on Neutravidin plates in the ELISA; Used unlabelled at 3 ug/mL in the HepG2 LDL uptake assay; also called huPCSK9; biotinylated-PCSK9

human PCSK9 [2] = target: T1, human PCSK9; assay: cell-based or functional assay
human CGRP alpha = target: T2, human CGRP alpha (human, UniProt P06881 83-119, N-terminally or C-terminally biotinylated (the two ELISAs were run separately)); assay: ELISA: biotinylated human CGRP alpha on neutravidin plates (the sheet does not say whether N- or C-terminally biotinylated), antibody dilution series, OD450
T2 construct: Bought peptide; N- and C-terminally biotinylated forms were captured on neutravidin plates; also called HuCGRP alpha; CGRPα
T2 peptide (looked up): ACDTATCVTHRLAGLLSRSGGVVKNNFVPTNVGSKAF

human beta-NGF = target: T3, human beta-NGF (human, UniProt P01138 122-241, limits assumed, biotinylated in the ELISA (site not stated)); assay: ELISA: biotinylated hu B-NGF on Neutravidin plates, antibody dilution series, anti-human IgG Fc-HRP, OD450
T3 construct: Biotinylated and captured on Neutravidin plates in the ELISA; Used unlabelled in the TF1 proliferation assay; also called hu B-NGF; huB-NGF
T3 sequence (P01138 122-241 limits assumed): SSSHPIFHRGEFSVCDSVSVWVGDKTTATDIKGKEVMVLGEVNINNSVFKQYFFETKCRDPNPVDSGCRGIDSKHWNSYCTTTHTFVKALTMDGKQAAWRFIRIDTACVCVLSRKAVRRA

T1 sequence (Q8NBP7 31-692 limits assumed): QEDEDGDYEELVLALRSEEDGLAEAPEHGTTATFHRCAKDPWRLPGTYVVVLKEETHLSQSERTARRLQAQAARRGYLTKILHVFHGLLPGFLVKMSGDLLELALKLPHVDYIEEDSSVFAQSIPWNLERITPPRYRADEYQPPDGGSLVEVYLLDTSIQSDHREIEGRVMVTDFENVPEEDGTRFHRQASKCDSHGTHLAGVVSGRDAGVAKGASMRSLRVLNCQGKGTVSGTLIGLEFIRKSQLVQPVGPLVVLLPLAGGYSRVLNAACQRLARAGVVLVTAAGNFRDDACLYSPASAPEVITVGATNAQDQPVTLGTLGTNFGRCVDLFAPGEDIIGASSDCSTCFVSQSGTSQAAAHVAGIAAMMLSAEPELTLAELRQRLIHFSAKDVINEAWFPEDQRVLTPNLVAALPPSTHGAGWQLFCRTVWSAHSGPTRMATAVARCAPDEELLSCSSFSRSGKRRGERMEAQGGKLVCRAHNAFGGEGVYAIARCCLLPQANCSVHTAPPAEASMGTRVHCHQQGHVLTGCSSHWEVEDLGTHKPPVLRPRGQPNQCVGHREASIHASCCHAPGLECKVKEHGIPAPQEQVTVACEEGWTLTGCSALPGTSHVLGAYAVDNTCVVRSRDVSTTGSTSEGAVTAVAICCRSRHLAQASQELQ

B1: Ab2 (antibody, V domains shown)
VH: SVEESGGRLVTPGTPLTLTCTVSGFSLSSYAMSWVRQAPGKGLEWIGIIDAIDNTYYASWAKGRFTISKTSTTVDLKMTSLTTGDTATYFCARASILGYSIATGFNIWGPGTLVTVSS
VL: AYDMTQTPASVEVAVGGTVTIKCQASQSISSHLAWYQQKSGQPPKLLIYRASTLESGVSSRFKGSGSGTEFTLTISDLECADAATYYCQQGYGVSDVDNGFGGGTEVVVK
In the case of B1, the EC50 (human PCSK9 [1]) is reported as 0.174 nM and the “IC50; LDL uptake assay: BODIPY-LDL uptake (RFUs) by HepG2 cells, antibody pre-incubated with 3 µg/mL PCSK9; RFUs rise with the antibody concentration” value (human PCSK9 [2]) is reported as 17.3 nM.

B2: Ab4 (antibody, V domains shown)
VH: QSLEESGGRLVTPGTPLTLTCSVSGIDLSGYYMNWVRQAPGKGLEWIGVIGINGATYYASWAKGRFTISKTSSTTVDLKMTSLTTEDTATYFCARGDIWGPGTLVTVSS
VL: QVLTQTPSPVSAAVGSTVTINCQASQSVYHNTYLAWYQQKPGQPPKQLIYDASTLASGVPSRFSGSGSGTQFTLTISGVQCNDAAAYYCLGSYDCTNGDCFVFGGGTEVVVKR
B2 showed an EC50 (human CGRP alpha) of 0.159 nM.

B3: Ab7 (antibody, V domains shown)
VH: QEQLKESGGRLVTPGTPLTLTCTVSGFSLSSYAMIWVRQAPGKGLEYIGYIDTDTSAYYASWVKGRFTISRTSTTVDLKITSPTTEDTATYFCARSYAAYGGYPATFDPWGPGTLVTVSS
VL: DVVMTQTPASVSQPVGGTVTIKCQASEDIYNLLAWYQQKPGQPPKLLIYSASTLASGVPSRFKGSGSGTEYTLTISGLECADAATYYCQNNYLVTTYGVAFGGGTEVVVK
B3 gave an EC50 (human beta-NGF) of 0.182 nM.

B4: Ab3 (antibody, V domains shown)
VH: EVQLVESGGGLVQPGGSLRLSCAVSGLDLSSYYMQWVRQAPGKGLEWVGVIGINDNTYYASWAKGRFTISRDNSKTTVYLQMNSLRAEDTAVYFCARGDIWGQGTLVTVSS
VL: QVLTQSPSSLSASVGDRVTINCQASQSVYDNNYLAWYQQKPGKVPKQLIYSTSTLASGVPSRFSGSGSGTDFTLTISSLQPEDVATYYCLGSYDCSSGDCFVFGGGTKVEIKR
B4 showed an EC50 (human CGRP alpha) of 0.127 nM.

B5: Ab8 (antibody, V domains shown)
VH: QVQLVESGGGVVQPGRSLRLSCAASGFTFSSYAMIWVRQAPGKGLEYIGYIDTDTSAYYASSVKGRFTISRDNSKNTLYLQMSSLRAEDTAVYYCARSYAAYGGYPATFDPWGQGTLVTVSS
VL: DIQMTQSPSSLSASVGDRVTITCQASEDIYNLLAWYQQKPGKVPKLLIYSASTLASGVPSRFSGSGSGTDYTLTISSLQPEDVATYYCQNNYLVTTYGVAFGGGTKVEIK
Binder B5 has an EC50 (human beta-NGF) of 0.254 nM.
